Reference: patent publication US20050059107A1

Key:
[1] = target: HLA-DP4 molecule DP402 (DPA1*0103/DPB1*0402) (human) (UniProt P20036); test: competition ELISA, tracer bUNK1
[2] = target: HLA-DP4 molecule DP401 (DPA1*0103/DPB1*0401) (human) (UniProt P20036); test: competition ELISA, tracer bUNK1
[3] = target: HLA-DP4 molecule DP402 (DPA1*0103/DPB1*0402) (human) (UniProt P20036); test: competition ELISA
[4] = target: HLA-DP4 molecule DP401 (DPA1*0103/DPB1*0401) (human) (UniProt P20036); test: competition ELISA
[5] = target: HLA-DP4 molecule DP402 (DPA1*0103/DPB1*0402) (human) (UniProt P20036); test: competition ELISA; capped, '>10 000' in Table VII
[6] = target: HLA-DP4 molecule DP401 (DPA1*0103/DPB1*0401) (human) (UniProt P20036); test: competition ELISA; capped, '>10 000' in Table VII

Row | Substance | IC50 [1] [µM] | relative binding activity vs UNK1 (IC50 ratio) [1] [fold] | IC50 [2] [µM] | IC50 [3] [µM] | IC50 [4] [µM] | IC50 [5] [µM] | IC50 [6] [µM]
1 | Api m1 65-82 (peptide) | 6.5 | 371 | 50 | 6.5 | 50 |  | 
2 | Api m1 81-98 (peptide) |  |  | 2.25 |  | 2.25 |  | 
3 | Api m1 73-90 (peptide) | > 10 |  | > 10 |  |  | > 10 | 10
4 | Api m1 69-86 (peptide) | > 10 |  | > 10 |  |  | > 10 | 10
